Test results: patent publication US10087225B2, “Formulation of MK2 inhibitor peptides” (MOERAE MATRIX, INC., priority 2015, dated 2018)

What was measured:
Assay in all cases: Kinase Profiling Assay
Format in all cases: biochemical
Ret(V804L)(h) = Ret(V804L)(h) (Homo sapiens, UniProt P07949, V804L); settings: 100 μM
IRAK1(h) = IRAK1(h) (Homo sapiens, UniProt P51617); settings: 100 μM
MAPK1(h) = MAPK1(h) (Homo sapiens, UniProt P27361)
Arg(h) = Arg(h) (Homo sapiens, UniProt P42684); settings: 100 μM
EGFR(T790M,L858R)(h) = EGFR(T790M,L858R)(h) (Homo sapiens, UniProt P00533, L858R/T790M); settings: 100 μM
SAPK2b(h) = SAPK2b(h) (Homo sapiens, UniProt Q15759); settings: 100 μM
CDK6/cyclinD3(h) = CDK6/cyclinD3(h) (Homo sapiens, UniProt Q00534); settings: 100 μM
CaMKIIγ(h) = CaMKIIγ(h) (Homo sapiens, UniProt Q13555); settings: 100 μM
Chain of CaMKIIγ(h) (Q13555 whole entry): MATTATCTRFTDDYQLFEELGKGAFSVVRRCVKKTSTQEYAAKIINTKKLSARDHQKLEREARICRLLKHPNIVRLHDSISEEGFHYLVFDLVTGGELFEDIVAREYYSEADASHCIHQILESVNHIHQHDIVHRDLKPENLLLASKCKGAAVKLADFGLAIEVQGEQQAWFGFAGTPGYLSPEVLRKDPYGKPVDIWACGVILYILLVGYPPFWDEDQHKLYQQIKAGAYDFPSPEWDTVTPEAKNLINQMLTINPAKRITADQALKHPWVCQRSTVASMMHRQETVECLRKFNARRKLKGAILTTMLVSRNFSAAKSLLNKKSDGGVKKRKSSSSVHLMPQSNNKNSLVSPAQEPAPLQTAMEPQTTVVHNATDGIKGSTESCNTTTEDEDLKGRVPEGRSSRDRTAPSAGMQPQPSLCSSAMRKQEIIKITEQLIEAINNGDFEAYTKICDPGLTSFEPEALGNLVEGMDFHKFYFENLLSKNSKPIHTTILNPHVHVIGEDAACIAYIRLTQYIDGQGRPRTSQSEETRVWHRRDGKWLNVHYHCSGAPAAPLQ

CK1δ(h) = CK1δ(h) (Homo sapiens, UniProt P48730); settings: 100 μM
Chain of CK1δ(h) (P48730 whole entry): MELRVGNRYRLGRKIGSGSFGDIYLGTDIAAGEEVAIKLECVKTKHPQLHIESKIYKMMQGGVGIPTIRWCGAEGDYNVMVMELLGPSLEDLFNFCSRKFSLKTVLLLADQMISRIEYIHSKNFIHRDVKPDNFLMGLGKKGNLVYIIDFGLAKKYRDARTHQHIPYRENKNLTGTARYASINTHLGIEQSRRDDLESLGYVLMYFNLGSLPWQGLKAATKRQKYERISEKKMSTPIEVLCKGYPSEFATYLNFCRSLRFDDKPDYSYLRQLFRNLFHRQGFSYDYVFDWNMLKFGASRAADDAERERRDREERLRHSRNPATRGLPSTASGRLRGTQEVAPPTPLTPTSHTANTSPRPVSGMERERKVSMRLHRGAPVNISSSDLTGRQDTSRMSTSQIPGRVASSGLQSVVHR

Rsk2(h) = Rsk2(h) (Homo sapiens, UniProt P51812); settings: 100 μM
Chain of Rsk2(h) (P51812 whole entry): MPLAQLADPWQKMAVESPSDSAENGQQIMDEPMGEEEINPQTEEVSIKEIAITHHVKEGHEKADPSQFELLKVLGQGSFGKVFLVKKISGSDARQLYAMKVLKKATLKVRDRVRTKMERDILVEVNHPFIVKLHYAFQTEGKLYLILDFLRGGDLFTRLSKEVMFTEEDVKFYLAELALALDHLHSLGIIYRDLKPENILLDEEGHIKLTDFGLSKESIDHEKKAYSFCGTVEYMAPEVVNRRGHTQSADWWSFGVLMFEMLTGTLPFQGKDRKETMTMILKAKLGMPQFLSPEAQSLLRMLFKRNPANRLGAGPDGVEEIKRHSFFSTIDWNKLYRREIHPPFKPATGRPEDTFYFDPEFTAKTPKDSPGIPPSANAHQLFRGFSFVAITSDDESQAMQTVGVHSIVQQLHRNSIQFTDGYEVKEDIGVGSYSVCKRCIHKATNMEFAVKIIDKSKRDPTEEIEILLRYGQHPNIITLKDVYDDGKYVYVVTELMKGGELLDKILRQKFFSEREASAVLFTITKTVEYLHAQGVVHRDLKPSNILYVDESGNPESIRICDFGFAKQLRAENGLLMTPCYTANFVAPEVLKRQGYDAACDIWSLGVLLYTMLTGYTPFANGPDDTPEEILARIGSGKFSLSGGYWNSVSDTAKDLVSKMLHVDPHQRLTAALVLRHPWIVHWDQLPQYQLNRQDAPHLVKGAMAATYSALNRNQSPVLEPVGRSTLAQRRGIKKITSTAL

MSK1(h) = MSK1(h) (Homo sapiens, UniProt O75582); settings: 100 μM
Chain of MSK1(h) (O75582 whole entry): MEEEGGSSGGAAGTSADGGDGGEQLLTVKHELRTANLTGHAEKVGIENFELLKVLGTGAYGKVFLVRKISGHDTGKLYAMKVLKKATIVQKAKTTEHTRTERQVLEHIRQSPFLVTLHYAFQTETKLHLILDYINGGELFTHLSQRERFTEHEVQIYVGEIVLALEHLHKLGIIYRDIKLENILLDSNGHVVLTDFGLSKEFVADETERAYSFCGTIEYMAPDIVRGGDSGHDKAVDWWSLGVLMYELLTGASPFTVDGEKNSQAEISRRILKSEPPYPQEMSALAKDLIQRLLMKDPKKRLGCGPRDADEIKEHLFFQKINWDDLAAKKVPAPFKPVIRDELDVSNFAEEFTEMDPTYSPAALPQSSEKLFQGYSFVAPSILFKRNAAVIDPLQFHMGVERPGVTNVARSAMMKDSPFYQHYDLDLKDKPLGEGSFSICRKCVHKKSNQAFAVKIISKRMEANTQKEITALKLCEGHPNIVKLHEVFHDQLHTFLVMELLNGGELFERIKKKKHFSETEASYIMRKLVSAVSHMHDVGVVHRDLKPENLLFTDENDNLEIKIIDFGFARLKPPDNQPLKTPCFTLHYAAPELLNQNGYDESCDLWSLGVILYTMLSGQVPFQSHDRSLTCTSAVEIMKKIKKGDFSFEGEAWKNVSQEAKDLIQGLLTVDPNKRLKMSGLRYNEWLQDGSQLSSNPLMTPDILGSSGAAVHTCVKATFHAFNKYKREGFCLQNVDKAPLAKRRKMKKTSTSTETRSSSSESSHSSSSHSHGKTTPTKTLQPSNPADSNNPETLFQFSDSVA

Pyk2(h) = Pyk2(h) (Homo sapiens, UniProt Q14289); settings: 100 μM
Chain of Pyk2(h) (Q14289 whole entry): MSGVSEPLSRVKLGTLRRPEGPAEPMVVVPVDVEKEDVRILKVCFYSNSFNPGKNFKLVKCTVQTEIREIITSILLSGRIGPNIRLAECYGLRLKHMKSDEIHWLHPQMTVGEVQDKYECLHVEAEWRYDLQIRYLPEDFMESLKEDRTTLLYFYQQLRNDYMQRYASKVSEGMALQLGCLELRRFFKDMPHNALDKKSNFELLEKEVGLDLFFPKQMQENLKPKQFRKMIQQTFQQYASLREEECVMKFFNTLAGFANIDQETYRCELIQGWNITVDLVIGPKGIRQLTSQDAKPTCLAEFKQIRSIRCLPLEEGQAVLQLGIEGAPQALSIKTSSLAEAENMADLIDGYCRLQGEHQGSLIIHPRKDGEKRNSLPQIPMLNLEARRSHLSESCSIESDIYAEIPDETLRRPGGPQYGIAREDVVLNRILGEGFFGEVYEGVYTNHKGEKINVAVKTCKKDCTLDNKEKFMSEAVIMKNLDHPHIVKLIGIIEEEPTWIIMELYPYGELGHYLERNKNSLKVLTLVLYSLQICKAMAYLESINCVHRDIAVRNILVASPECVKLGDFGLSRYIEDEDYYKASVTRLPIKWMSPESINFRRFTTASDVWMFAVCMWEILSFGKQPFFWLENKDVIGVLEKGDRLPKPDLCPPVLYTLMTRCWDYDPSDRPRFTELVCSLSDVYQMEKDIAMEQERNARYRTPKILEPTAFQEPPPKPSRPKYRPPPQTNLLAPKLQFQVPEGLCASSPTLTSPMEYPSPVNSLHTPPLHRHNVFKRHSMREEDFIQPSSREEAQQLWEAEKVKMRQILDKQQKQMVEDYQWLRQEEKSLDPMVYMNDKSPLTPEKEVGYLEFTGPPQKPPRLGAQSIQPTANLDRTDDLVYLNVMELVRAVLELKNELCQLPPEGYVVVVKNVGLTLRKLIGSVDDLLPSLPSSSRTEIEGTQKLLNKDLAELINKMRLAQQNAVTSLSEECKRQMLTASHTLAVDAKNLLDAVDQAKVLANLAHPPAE

PKCη(h) = PKCη(h) (Homo sapiens, UniProt P24723); settings: 100 μM
CaMKI(h) = CaMKI(h) (Homo sapiens, UniProt Q14012); settings: 100 μM
cKit(D816V)(h) = cKit(D816V)(h) (Homo sapiens, UniProt P10721, D816V); settings: 100 μM
mTOR/FKBP12(h) = mTOR/FKBP12(h) (Homo sapiens, UniProt P42345); settings: 100 μM
PDGFRβ(h) = PDGFRβ(h) (Homo sapiens, UniProt P09619); settings: 100 μM
FAK(h) = FAK(h) (Homo sapiens, UniProt Q05397); settings: 100 μM
Chain of FAK(h) (Q05397 whole entry): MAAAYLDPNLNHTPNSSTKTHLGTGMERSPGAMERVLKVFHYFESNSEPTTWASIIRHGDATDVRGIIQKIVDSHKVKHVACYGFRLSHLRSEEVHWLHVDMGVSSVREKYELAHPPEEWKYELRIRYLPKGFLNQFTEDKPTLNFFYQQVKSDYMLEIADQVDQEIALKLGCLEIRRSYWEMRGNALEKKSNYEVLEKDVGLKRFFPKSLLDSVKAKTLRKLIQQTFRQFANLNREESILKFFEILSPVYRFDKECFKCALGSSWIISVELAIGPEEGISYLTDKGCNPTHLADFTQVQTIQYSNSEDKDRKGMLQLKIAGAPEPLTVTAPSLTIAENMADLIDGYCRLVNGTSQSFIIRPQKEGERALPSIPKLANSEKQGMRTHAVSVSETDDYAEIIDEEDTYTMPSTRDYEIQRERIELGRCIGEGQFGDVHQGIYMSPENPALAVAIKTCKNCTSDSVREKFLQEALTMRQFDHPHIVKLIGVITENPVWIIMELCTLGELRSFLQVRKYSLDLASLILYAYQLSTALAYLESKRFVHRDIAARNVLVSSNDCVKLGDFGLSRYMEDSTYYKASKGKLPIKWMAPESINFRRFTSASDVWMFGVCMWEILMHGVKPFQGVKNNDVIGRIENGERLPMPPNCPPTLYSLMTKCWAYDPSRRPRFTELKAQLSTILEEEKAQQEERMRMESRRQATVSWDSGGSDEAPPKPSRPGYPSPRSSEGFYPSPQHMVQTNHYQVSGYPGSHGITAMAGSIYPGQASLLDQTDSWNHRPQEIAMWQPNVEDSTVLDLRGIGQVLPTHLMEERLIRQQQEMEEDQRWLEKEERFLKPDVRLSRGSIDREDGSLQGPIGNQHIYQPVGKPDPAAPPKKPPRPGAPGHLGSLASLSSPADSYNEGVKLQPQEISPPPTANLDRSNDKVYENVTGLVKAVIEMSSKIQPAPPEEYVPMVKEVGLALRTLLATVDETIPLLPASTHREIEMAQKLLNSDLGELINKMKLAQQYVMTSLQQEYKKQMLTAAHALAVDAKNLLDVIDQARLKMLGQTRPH

TAO1(h) = biological target: T1, TAO1(h) (Homo sapiens, UniProt Q7L7X3)
T1 sequence (Q7L7X3 1-1001): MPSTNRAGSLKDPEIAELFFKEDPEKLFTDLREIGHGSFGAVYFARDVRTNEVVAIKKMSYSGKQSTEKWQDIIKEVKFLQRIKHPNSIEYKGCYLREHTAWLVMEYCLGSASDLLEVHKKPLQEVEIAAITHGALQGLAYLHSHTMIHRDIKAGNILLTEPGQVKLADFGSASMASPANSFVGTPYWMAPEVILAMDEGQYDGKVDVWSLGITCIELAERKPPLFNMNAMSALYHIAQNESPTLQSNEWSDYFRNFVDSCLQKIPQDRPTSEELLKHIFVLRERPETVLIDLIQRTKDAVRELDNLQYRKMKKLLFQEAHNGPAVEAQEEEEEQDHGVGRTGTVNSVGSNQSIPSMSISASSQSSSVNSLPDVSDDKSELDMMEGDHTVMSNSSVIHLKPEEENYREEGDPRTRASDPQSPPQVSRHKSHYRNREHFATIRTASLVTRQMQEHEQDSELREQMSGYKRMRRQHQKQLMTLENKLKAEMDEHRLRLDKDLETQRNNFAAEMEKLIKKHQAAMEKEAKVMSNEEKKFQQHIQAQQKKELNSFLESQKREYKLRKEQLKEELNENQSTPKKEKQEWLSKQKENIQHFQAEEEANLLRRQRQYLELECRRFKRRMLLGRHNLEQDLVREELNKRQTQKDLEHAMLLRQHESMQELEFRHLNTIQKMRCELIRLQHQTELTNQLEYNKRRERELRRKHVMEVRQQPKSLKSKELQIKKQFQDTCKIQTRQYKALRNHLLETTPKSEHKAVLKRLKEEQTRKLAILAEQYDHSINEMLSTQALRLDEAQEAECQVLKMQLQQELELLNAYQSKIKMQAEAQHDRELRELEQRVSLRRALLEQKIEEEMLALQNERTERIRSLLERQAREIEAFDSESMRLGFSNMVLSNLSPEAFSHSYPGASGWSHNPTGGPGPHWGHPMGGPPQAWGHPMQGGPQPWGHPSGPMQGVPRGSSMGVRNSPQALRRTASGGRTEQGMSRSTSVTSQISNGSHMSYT

HIPK2(h) = HIPK2(h) (Homo sapiens, UniProt Q9H2X6)
PRAK(h) = biological target: T2, PRAK(h) (Homo sapiens, UniProt Q8IW41)
T2 sequence (Q8IW41 1-473): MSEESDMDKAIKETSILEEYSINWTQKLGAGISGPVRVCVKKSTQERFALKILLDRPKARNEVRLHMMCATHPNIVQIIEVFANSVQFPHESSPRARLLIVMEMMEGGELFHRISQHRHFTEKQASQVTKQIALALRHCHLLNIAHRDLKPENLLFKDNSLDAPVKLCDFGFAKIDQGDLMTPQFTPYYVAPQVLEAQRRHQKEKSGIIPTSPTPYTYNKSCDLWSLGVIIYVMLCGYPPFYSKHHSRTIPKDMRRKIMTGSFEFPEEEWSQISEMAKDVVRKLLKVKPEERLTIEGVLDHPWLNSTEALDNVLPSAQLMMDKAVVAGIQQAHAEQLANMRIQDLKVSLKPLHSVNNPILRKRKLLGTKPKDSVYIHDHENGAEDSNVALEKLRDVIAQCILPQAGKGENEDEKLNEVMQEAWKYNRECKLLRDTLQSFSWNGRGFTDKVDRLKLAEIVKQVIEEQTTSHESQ

TrkA(h) = TrkA(h) (Homo sapiens, UniProt P04629)

Chain of MAPK1(h) (P27361 whole entry): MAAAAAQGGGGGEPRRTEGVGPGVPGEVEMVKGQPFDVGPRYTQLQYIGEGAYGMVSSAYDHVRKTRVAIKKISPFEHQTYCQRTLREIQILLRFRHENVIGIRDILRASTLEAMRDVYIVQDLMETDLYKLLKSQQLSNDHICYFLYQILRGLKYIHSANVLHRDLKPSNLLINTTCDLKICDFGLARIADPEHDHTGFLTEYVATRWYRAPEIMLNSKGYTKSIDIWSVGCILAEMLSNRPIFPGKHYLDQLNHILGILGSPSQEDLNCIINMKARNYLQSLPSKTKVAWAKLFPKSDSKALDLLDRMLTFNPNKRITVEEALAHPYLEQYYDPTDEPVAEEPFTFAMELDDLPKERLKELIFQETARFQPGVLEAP

| Substance | % activity (Ret(V804L)(h)) | % activity (IRAK1(h)) | % activity (Arg(h)) | % activity (EGFR(T790M,L858R)(h)) | % activity (SAPK2b(h)) | % activity (CDK6/cyclinD3(h)) | % activity (CaMKIIγ(h)) | % activity (CK1δ(h)) | % activity (Rsk2(h)) | % activity (MSK1(h)) | % activity (Pyk2(h)) | % activity (PKCη(h)) | % activity (CaMKI(h)) | % activity (cKit(D816V)(h)) | % activity (mTOR/FKBP12(h)) | % activity (PDGFRβ(h)) | % activity (FAK(h)) | other results |
| --- | --- | --- | --- | --- | --- | --- | --- | --- | --- | --- | --- | --- | --- | --- | --- | --- | --- | --- |
| YARAAARQARAKALNRQLGVA (Mammalian) [MMI-0200] | 100% | 101% | 82% | 108% | 95% | 100% | 94% | 92% | 101% | 50% | 127% | 101% | 21% | 118% | 118% | 137% | 110% | % activity (MAPK1(h); 100 μM): 97% |
| H-YARAAARQARAKALARQLGVAA-OH [MMI-0100] |  |  |  |  |  |  |  |  |  |  |  |  |  |  |  |  |  | activity at 100 µM (MAPK1(h)): 108%; activity at 100 µM (TAO1(h)): 99%; activity at 100 µM (HIPK2(h)): 98%; activity at 100 µM (PRAK(h)): 159%; activity at 100 µM (TrkA(h)): 74% |
| HRRIKAWLKKIKALARQLGVAA (Mammalian) [MMI-0500] | 20% | 5% | 22% | 53% | 42% | 23% | 3% | 78% | 14% | 8% | 46% | 45% | -1% | 30% | 140% | 40% | 94% | % activity (TAO1(h); 100 μM): 24%; % activity (HIPK2(h); 100 μM): 38%; % activity (PRAK(h); 100 μM): 95%; % activity (TrkA(h); 100 μM): 24% |
